How the values were obtained:
[1] = biological target: T1, human FAPα (Fibroblast activation protein alpha), cell surface expressed (human, UniProt Q12884 1-760); experiment: flow cytometry, human lung fibroblasts, n = 1
T1 construct: Endogenous on human lung fibroblasts and CAFs
T1 sequence: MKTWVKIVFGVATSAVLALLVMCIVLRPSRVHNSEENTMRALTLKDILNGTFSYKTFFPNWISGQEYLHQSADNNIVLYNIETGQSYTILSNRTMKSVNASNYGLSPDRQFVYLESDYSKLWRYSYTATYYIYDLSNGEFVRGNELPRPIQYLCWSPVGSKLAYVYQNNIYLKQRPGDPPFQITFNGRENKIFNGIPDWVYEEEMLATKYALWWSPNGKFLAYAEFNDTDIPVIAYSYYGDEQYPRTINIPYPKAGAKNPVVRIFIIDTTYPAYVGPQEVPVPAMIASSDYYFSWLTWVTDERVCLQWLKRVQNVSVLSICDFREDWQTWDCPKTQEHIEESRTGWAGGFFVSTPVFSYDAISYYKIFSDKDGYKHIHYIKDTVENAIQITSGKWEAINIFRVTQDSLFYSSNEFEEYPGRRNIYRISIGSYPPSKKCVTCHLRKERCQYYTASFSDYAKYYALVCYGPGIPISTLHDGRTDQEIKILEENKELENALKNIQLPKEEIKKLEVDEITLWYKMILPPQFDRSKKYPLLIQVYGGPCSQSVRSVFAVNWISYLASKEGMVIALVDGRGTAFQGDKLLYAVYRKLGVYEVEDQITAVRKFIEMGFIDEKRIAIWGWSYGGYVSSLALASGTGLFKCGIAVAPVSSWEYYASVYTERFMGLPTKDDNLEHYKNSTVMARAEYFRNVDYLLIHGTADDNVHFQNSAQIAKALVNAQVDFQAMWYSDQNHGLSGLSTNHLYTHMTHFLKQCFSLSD
Procedure: (§1) Binding of bispecific or monoclonal antibodies carrying the anti-FAPα arm derived from IgG1-FAPα-FERL (BisG1-FAPα-FERL/DR4-FERR, BisG1-FAPα-FERL/b12-FERR, and IgG1-FAPα-FERL) to cell surface expressed human FAPα was analyzed by flow cytometry using human lung fibroblasts and CAFs, which endogenously express FAPα. BisG1-b12-FERL/b12-FERR was used as negative control.
(§2) Human lung fibroblasts and CAFs (50,000 cells/well) were seeded in 96-Well round bottom plates (Greiner Bio-one, Cat #650101). Antibody dilutions were prepared using fluorescence-activated cell sorting (FACS) buffer, consisting of phosphate buffer saline (PBS, Lonza, Cat #BE17-517Q)+1% Bovine Serum Albumin (BSA, Roche, Cat #10735086001)+0.02% Sodium Azide (Bio-World, Cat #41920044-3). Plates were centrifuged, supernatant was removed, cells were resuspended in 50 μL of human Fc Block (BD, Cat #564220, diluted 1:100 in FACS buffer) and 50 μL of viability stain TO-PRO-3 Iodide (Thermo Fisher, Cat #T3605, diluted 1: 25,000 in FACS buffer), and incubated for 15 min at 4° C. Plates were washed three times with FACS buffer. Plates were centrifuged, supernatant was removed, cells were resuspended in 50 μL of antibody dilutions (concentration range 90-0.0005 μg/mL, three-fold dilution steps using FACS buffer) of BisG1-FAPα-FERL/DR4-FERR, BisG1-FAPα-FERL/b12-FERR, BisG1-b12-FERL/b12-FERR (top six concentrations only for CAFs culture) or IgG1-FAPα-FERL (top four concentrations only for CAFs culture) and incubated for 30 min at 4° C. Cells were washed three times with FACS buffer and resuspended in 50 μL of Fluorescein isothiocyanate (FITC)-labeled polyclonal antibody goat anti-mouse IgG1 (Jackson Immuno Research, Cat #109-096-097, diluted 1:100 in FACS buffer). […] Antibody binding to viable cells (TO-PRO-3 negative) was analyzed by flow cytometry on a FACSCelesta™ (BD biosciences) and data were processed using FlowJo_v10.8.1 (FlowJo LLC). Geomean fluorescence intensity, gMFI, was determined and visualized using GraphPad Prism.

[2] = biological target: T1, human FAPα (Fibroblast activation …); experiment: flow cytometry, human lung fibroblasts, average ± SEM
Procedure: as §1, §2

[3] = biological target: T2, human DR4 (Death Receptor 4), cell surface expressed on human tumor cell lines (human, UniProt O00220 24-468); experiment: flow cytometry, DLD-1 cells, average ± SEM
T2 construct: also called TNFRSF10A; TRAIL-R1
T2 sequence: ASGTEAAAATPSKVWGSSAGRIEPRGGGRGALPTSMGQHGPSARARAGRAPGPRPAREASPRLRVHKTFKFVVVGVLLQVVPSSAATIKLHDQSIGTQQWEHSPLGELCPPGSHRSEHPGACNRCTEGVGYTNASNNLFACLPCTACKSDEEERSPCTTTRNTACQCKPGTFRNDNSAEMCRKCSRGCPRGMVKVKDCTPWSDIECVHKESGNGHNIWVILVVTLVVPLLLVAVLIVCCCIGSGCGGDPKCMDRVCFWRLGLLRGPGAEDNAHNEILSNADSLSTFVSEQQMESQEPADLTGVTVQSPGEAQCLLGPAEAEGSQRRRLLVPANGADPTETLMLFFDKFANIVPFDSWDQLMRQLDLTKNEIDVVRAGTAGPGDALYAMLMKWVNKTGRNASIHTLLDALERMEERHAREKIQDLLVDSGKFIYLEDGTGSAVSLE

[4] = biological target: T2, human DR4 (Death Receptor 4), cell …; experiment: flow cytometry, HCT-116 cells, average ± SEM
[5] = biological target: T2, human DR4 (Death Receptor 4), cell …; experiment: flow cytometry, HCT-15 cells, n = 2
[6] = biological target: T2, human DR4 (Death Receptor 4), cell …; experiment: flow cytometry, DLD-1 cells, n = 3
[7] = biological target: T2, human DR4 (Death Receptor 4), cell …; experiment: flow cytometry, MDA-MB-231 cells, n = 2
[8] = biological target: T2, human DR4 (Death Receptor 4), cell …; experiment: flow cytometry, MDA-MB-231 cells, n = 1

EC50 [1]: 0.046 µg/mL | EC50 [2]: 0.051 µg/mL
B1: BisG1-FAPα-FERL/DR4-FERR (bispecific antibody, human IgG1, kappa, lambda)
heavy 1: EVQLLESGGGLVQPGGSPRLSCEASGFTFSSYALSWVRQAPGKGLEWVSAISGSGGGRYYADSVKGRFTISRDNSKNTLFLQMNSLRAEDTAVYYCAKEGYSSSGTYWDHWGQGTLVTVSSASTKGPSVFPLAPSSKSTSGGTAALGCLVKDYFPEPVTVSWNSGALTSGVHTFPAVLQSSGLYSLSSVVTVPSSSLGTQTYICNVNHKPSNTKVDKRVEPKSCDKTHTCPPCPAPEFERGPSVFLFPPKPKDTLMISRTPEVTCVVVDVSHEDPEVKFNWYVDGVEVHNAKTKPREEQYNSTYRVVSVLTVLHQDWLNGKEYKCKVSNKALPAPIEKTISKAKGQPREPQVYTLPPSREEMTKNQVSLTCLVKGFYPSDIAVEWESNGQPENNYKTTPPVLDSDGSFLLYSKLTVDKSRWQQGNVFSCSVMHEALHNHYTQKSLSLSPG
light 1: AIQMTQSPSSVSASVGDRVTITCRASQGVSSWLAWYQQKPGRAPKLLIYVASTLQSGVPSRFSGSGSGTDFTLTINSLQPEDFATYYCQQANSFPPTFGQGTRLEMKRTVAAPSVFIFPPSDEQLKSGTASVVCLLNNFYPREAKVQWKVDNALQSGNSQESVTEQDSKDSTYSLSSTLTLSKADYEKHKVYACEVTHQGLSSPVTKSFNRGEC
heavy 2: QVQLQESGPGLVKPSGTLSLTCAVSGGSISSYSWWSWIRQPPGKGLEWIGELYHSGSTNYNPSLKSRVTISVDKSKNQFSLKLRSVTAADTAVYYCVRGVATIDYWGQGTLVTVSSASTKGPSVFPLAPSSKSTSGGTAALGCLVKDYFPEPVTVSWNSGALTSGVHTFPAVLQSSGLYSLSSVVTVPSSSLGTQTYICNVNHKPSNTKVDKRVEPKSCDKTHTCPPCPAPEFERGPSVFLFPPKPKDTLMISRTPEVTCVVVDVSHEDPEVKFNWYVDGVEVHNAKTKPREEQYNSTYRVVSVLTVLHQDWLNGKEYKCKVSNKALPAPIEKTISKAKGQPREPQVYTLPPSREEMTKNQVSLTCLVKGFYPSDIAVEWESNGQPENNYKTTPPVLDSDGSFFLYSRLTVDKSRWQQGNVFSCSVMHEALHNHYTQKSLSLSPG
light 2: QSALTQPPSASGSPGQSVTISCTGTSSDVGGYNFVSWYQQDPGKAPKLLIYEVTKRPSGVPDRFSGSKSGNTASLTVSGLQAEDEADYYCSSYAGSNNVMFGGGTKLTVLGQPKAAPSVTLFPPSSEELQANKATLVCLISDFYPGAVTVAWKADSSPVKAGVETTTPSKQSNNKYAASSYLSLTPEQWKSHRSYSCQVTHEGSTVEKTVAPTECS
notes: Human IgG1 bispecific made by controlled Fab-arm exchange of IgG1-FAPα-FERL and IgG1-DR4-FERR; monovalent for FAPα and for DR4; also called GEN1057
EC50 [3]: 0.72 µg/mL | EC50 [4]: 0.52 µg/mL | EC50 [5]: 0.69 µg/mL | EC50 [6]: 0.67 µg/mL | EC50 [7]: 1.24 µg/mL | EC50 [8]: 1.12 µg/mL
